One block for each binder: values may come before it.
How the values were obtained:
[1] = biological target: T1, GST-ULK1 279–525 (from bacteria) (UniProt O75385 279-525); experiment: pull-down; GST-ULK1 279–525 and His-STX17 157–275 purified from bacteria, incubated in IP lysis buffer with glutathione beads for 4 h at 4 °C; western blot with His antibody; conditions: both partners purified
T1 construct: in the vector pGEX-4t-2; source: E. coli BL21 codon plus, purified
T1 sequence (looked up): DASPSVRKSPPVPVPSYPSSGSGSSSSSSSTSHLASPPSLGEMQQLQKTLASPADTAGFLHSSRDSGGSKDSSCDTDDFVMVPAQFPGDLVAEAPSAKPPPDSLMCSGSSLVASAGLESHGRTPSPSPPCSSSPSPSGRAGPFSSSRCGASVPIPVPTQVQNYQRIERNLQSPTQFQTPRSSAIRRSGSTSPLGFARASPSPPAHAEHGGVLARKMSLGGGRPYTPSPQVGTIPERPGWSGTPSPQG

[2] = biological target: T2, GFP-STX17, P56962; experiment: proximity ligation; GFP-STX17 co-transfected with Myc-ULK1 variants or Myc vector into HeLa; anti-Myc and anti-GFP antibodies; with or without serum starvation; conditions: remark: other sources report otherwise
T2 chain: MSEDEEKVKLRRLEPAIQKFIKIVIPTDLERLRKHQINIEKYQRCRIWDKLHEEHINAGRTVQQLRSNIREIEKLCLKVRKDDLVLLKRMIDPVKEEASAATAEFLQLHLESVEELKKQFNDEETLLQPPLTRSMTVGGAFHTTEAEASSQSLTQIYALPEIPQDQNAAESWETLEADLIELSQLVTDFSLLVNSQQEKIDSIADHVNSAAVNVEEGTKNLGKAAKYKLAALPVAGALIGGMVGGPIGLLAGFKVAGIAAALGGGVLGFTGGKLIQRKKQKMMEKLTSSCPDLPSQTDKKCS

binding result [1]: binds
B1: His-STX17 157–275 (domain or fragment, UniProt P56962 157-275, looked up)
chain: YALPEIPQDQNAAESWETLEADLIELSQLVTDFSLLVNSQQEKIDSIADHVNSAAVNVEEGTKNLGKAAKYKLAALPVAGALIGGMVGGPIGLLAGFKVAGIAAALGGGVLGFTGGKLI
notes: in the vector pET-26b(+); source: E. coli BL21 codon plus, purified; not shown: His6, C-terminal, kept

fold increase of the PLA signal with serum starvation over no starvation [2]: 2.5 fold
B2: Myc-ULK1 WT, O75385 1-1050 (enzyme)
chain: MEPGRGGTETVGKFEFSRKDLIGHGAFAVVFKGRHREKHDLEVAVKCINKKNLAKSQTLLGKEIKILKELKHENIVALYDFQEMANSVYLVMEYCNGGDLADYLHAMRTLSEDTIRLFLQQIAGAMRLLHSKGIIHRDLKPQNILLSNPAGRRANPNSIRVKIADFGFARYLQSNMMAATLCGSPMYMAPEVIMSQHYDGKADLWSIGTIVYQCLTGKAPFQASSPQDLRLFYEKNKTLVPTIPRETSAPLRQLLLALLQRNHKDRMDFDEFFHHPFLDASPSVRKSPPVPVPSYPSSGSGSSSSSSSTSHLASPPSLGEMQQLQKTLASPADTAGFLHSSRDSGGSKDSSCDTDDFVMVPAQFPGDLVAEAPSAKPPPDSLMCSGSSLVASAGLESHGRTPSPSPPCSSSPSPSGRAGPFSSSRCGASVPIPVPTQVQNYQRIERNLQSPTQFQTPRSSAIRRSGSTSPLGFARASPSPPAHAEHGGVLARKMSLGGGRPYTPSPQVGTIPERPGWSGTPSPQGAEMRGGRSPRPGSSAPEHSPRTSGLGCRLHSAPNLSDLHVVRPKLPKPPTDPLGAVFSPPQASPPQPSHGLQSCRNLRGSPKLPDFLQRNPLPPILGSPTKAVPSFDFPKTPSSQNLLALLARQGVVMTPPRNRTLPDLSEVGPFHGQPLGPGLRPGEDPKGPFGRSFSTSRLTDLLLKAAFGTQAPDPGSTESLQEKPMEIAPSAGFGGSLHPGARAGGTSSPSPVVFTVGSPPSGSTPPQGPRTRMFSAGPTGSASSSARHLVPGPCSEAPAPELPAPGHGCSFADPITANLEGAVTFEAPDLPEETLMEQEHTEILRGLRFTLLFVQHVLEIAALKGSASEAAGGPEYQLQESVVADQISLLSREWGFAEQLVLYLKVAELLSSGLQSAIDQIRAGKLCLSSTVKQVVRRLNELYKASVVSCQGLSLRLQRFFLDKQRLLDRIHSITAERLIFSHAVQMVQSAALDEMFQHREGCVPRYHKALLLLEGLQHMLSDQADIENVTKCKLCIERRLSALLTGICA

— paper PMC6113293, “Phosphorylation of ULK1 affects autophagosome fusion and links chaperone-mediated autophagy to macroautophagy” (Nature Communications, 2018)
